± gives the standard deviation of the averaged measurements.
Experiments:
MCF7 = test: percentage of EdU-negative (G0-arrested) nuclei per well, 72 h; higher = more G0 arrest; conditions: reference: sequence is the full UniProt precursor, the tested protein was the secreted form or ectodomain
hTERT-HMEC = test: as above; conditions: reference: sequence is the full UniProt precursor, the tested protein was the secreted form or ectodomain
[1] = protein concentration 0.0126825 µM
[2] = protein concentration 0.126825 µM
[3] = protein concentration 0.0225 µM
[4] = protein concentration 0.03125 µM
[5] = protein concentration 0.3125 µM
[6] = protein concentration 0.0357143 µM
[7] = protein concentration 0.357143 µM
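Also: secreted proteins added to cultured cells, EdU pulse at the end, nuclei found by Hoechst imaging, EdU status from nuclear versus surrounding ring intensity ratio, PBS as neutral control.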

Chain of Q6UXN8 (chain, as listed by the source): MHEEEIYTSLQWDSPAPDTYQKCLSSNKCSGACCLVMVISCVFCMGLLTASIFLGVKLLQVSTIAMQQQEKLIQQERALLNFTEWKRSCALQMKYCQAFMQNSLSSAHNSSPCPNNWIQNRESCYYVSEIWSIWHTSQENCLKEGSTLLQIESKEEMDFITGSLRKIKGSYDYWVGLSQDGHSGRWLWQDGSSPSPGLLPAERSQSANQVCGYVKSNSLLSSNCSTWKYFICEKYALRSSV

MQVSKRMLAGGVRSMPSPLLACWQPILLLVLGSVLSGSATGCPPRCECSAQDRAVLCHRKRFVAVPEGIPTETRLLDLGKNRIKTLNQDEFASFPHLEELELNENIVSAVEPGAFNNLFNLRTLGLRSNRLKLIPLGVFTGLSNLTKLDISENKIVILLDYMFQDLYNLKSLEVGDNDLVYISHRAFSGLNSLEQLTLEKCNLTSIPTEALSHLHGLIVLRLRHLNINAIRDYSFKRLYRLKVLEISHWPYLDTMTPNCLYGLNLTSLSITHCNLTAVPYLAVRHLVYLRFLNLSYNPISTIEGSMLHELLRLQEIQLVGGQLAVVEPYAFRGLNYLRVLNVSGNQLTTLEESVFHSVGNLETLILDSNPLACDCRLLWVFRRRWRLNFNRQQPTCATPEFVQGKEFKDFPDVLLPNYFTCRRARIRDRKAQQVFVDEGHTVQFVCRADGDPPPAILWLSPRKHLVSAKSNGRLTVFPDGTLEVRYAQVQDNGTYLCIAANAGGNDSMPAHLHVRSYSPDWPHQPNKTFAFISNQPGEGEANSTRATVPFPFDIKTLIIATTMGFISFLGVVLFCLVLLFLWSRGKGNTKHNIEIEYVPRKSDAGISSADAPRKFNMKMI [Q96FE5]
percentage of EdU-negative (MCF7; [1]): 23.8 ± 3% | percentage of EdU-negative (MCF7; [2]): 28.9 ± 0.74% | percentage of EdU-negative (hTERT-HMEC; [1]): 4.72 ± 0.26% | percentage of EdU-negative (hTERT-HMEC; [2]): 4.37 ± 0.16%

MKFFLLLFTIGFCWAQYSPNTQQGRTSIVHLFEWRWVDIALECERYLAPKGFGGVQVSPPNENVAIHNPFRPWWERYQPVSYKLCTRSGNEDEFRNMVTRCNNVGVRIYVDAVINHMSGNAVSAGTSSTCGSYFNPGSRDFPAVPYSGWDFNDGKCKTGSGDIENYNDATQVRDCRLVGLLDLALEKDYVRSKIAEYMNHLIDIGVAGFRLDASKHMWPGDIKAILDKLHNLNSNWFPAGSKPFIYQEVIDLGGEPIKSSDYFGNGRVTEFKYGAKLGTVIRKWNGEKMSYLKNWGEGWGFMPSDRALVFVDNHDNQRGHGAGGASILTFWDARLYKMAVGFMLAHPYGFTRVMSSYRWPRQFQNGNDVNDWVGPPNNNGVIKEVTINPDTTCGNDWVCEHRWRQIRNMVNFRNVVDGQPFTNWYDNGSNQVAFGRGNRGFIVFNNDDWTFSLTLQTGLPAGTYCDVISGDKINGNCTGIKIYVSDDGKAHFSISNSAEDPFIAIHAESKL
percentage of EdU-negative (MCF7; [3]): 25 ± 4.2% | percentage of EdU-negative (MCF7; protein concentration 0.225 µM): 31.3 ± 2.5% | percentage of EdU-negative (hTERT-HMEC; [3]): 6.12 ± 0.67% | percentage of EdU-negative (hTERT-HMEC; protein concentration 0.225 µM): 7.06 ± 0.1%

MAPARAGFCPLLLLLLLGLWVAEIPVSAKPKGMTSSQWFKIQHMQPSPQACNSAMKNINKHTKRCKDLNTFLHEPFSSVAATCQTPKIACKNGDKNCHQSHGAVSLTMCKLTSGKHPNCRYKEKRQNKSYVVACKPPQKKDSQQFHLVPVHLDRVL [Q9H1E1]
percentage of EdU-negative (MCF7; [4]): 24.6 ± 0.7% | percentage of EdU-negative (MCF7; [5]): 26 ± 3.1% | percentage of EdU-negative (hTERT-HMEC; [4]): 4.51 ± 0.69% | percentage of EdU-negative (hTERT-HMEC; [5]): 6.66 ± 0.32%

MEEAILVPCVLGLLLLPILAMLMALCVHCHRLPGSYDSTSSDSLYPRGIQFKRPHTVAPWPPAYPPVTSYPPLSQPDLLPIPRSPQPLGGSHRTPSSRRDSDGANSVASYENEGASGIRGAQAGWGVWGPSWTRLTPVSLPPEPACEDADEDEDDYHNPGYLVVLPDSTPATSTAAPSAPALSTPGIRDSAFSMESIDDYVNVPESGESAEASLDGSREYVNVSQELHPGAAKTEPAALSSQEAEEVEEEGAPDYENLQELN
percentage of EdU-negative (MCF7; [3]): 25.6 ± 1.2% | percentage of EdU-negative (MCF7; protein concentration 0.225 µM): 25.8 ± 2.6% | percentage of EdU-negative (hTERT-HMEC; [3]): 5.1 ± 0.68% | percentage of EdU-negative (hTERT-HMEC; protein concentration 0.225 µM): 5.5816 ± 0.0039%

MMRTCVLLSAVLWCLTGVQCPRFTLFNKKGFIYGKTGQPDKIYVELHQNSPVLICMDFKLSKKEIVDPTYLWIGPNEKTLTGNNRINITETGQLMVKDFLEPLSGLYTCTLSYKTVKAETQEEKTVKKRYDFMVFAYREPDYSYQMAVRFTTRSCIGRYNDVFFRVLKKILDSLISDLSCHVIEPSYKCHSVEIPEHGLIHELFIAFQVNPFAPGWKGACNGSVDCEDTTNHNILQARDRIEDFFRSQAYIFYHNFNKTLPAMHFVDHSLQVVRLDSCRPGFGKNERLHSNCASCCVVCSPATFSPDVNVTCQTCVSVLTYGAKSCPQTSNKNQQYED [Q6X784]
percentage of EdU-negative (MCF7; [6]): 24.6 ± 1.8% | percentage of EdU-negative (MCF7; [7]): 28.8 ± 3.5% | percentage of EdU-negative (hTERT-HMEC; [6]): 4.95 ± 0.69% | percentage of EdU-negative (hTERT-HMEC; [7]): 6.88 ± 0.23%

MGCRAASGLLPGVAVVLLLLLQSTQSVYIQYQGFRVQLESMKKLSDLEAQWAPSPRLQAQSLLPAVCHHPALPQDLQPVCASQEASSIFKTLRTIANDDCELCVNVACTGCL
percentage of EdU-negative (MCF7; [3]): 27.3 ± 2.2% | percentage of EdU-negative (MCF7; protein concentration 0.225 µM): 27.8 ± 1.8% | percentage of EdU-negative (hTERT-HMEC; [3]): 4.91 ± 1.5% | percentage of EdU-negative (hTERT-HMEC; protein concentration 0.225 µM): 9.77 ± 1.3%

MTPHRLLPPLLLLLALLLAASPGGALARCPGCGQGVQAGCPGGCVEEEDGGSPAEGCAEAEGCLRREGQECGVYTPNCAPGLQCHPPKDDEAPLRALLLGRGRCLPARAPAVAEENPKESKPQAGTARPQDVNRRDQQRNPGTSTTPSQPNSAGVQDTEMGPCRRHLDSVLQQLQTEVYRGAQTLYVPNCDHRGFYRKRQCRSSQGQRRGPCWCVDRMGKSLPGSPDGNGSSSCPTGSSG
percentage of EdU-negative (MCF7; [4]): 25 ± 1.6% | percentage of EdU-negative (MCF7; [5]): 25.79 ± 0.037% | percentage of EdU-negative (hTERT-HMEC; [4]): 4.84 ± 0.44% | percentage of EdU-negative (hTERT-HMEC; [5]): 5.17 ± 1%

Q6UXN8
percentage of EdU-negative (MCF7; [3]): 24.9 ± 2.2% | percentage of EdU-negative (MCF7; protein concentration 0.225 µM): 25.2 ± 1.4% | percentage of EdU-negative (hTERT-HMEC; [3]): 4.27 ± 1% | percentage of EdU-negative (hTERT-HMEC; protein concentration 0.225 µM): 4.93 ± 0.51%

Source: the supplement of paper PMC11316812
